Results from the RNAGym collection of RNA variant scans (doi:10.7554/elife.90254).

B1: LINE1-full (parent)
chain: UACGUAGGUGGUUUUCCCCUGAUAGUGCUAAGGGGGCCUGGAAGUUUGGACUGGGCAGAGCUCAACACAGCGUGGCAAAGUGGCUGUGGCUAGACUGCCUCUCUGGAUUCCUCGUCACUCAGCAGGGCAUCUCUGAGAGAAAUGCC

Variants of: B1
Assay: self-cleavage, relative activity (ratio to wild type); higher = more cleavage; in vitro, sequencing; the parent is a self-cleaving ribozyme

Variant | self-cleavage
U85C A140U | 0.16
U39A A69G | 0.55
U85C U115C | 0.21
U23A U46A | 0.6
G54A A69C | 0.04
U45C U132G | 1.33
A64C A65G | 0.19
G122A G137U | 1.23
U46C G74A | 0.52
U46C G114A | 1.22
G127A A140U | 1.26
U62C U102A | 0.04
G7A A78G | 1.12
C3U U47A | 0.67
A69U C116A | 0.05
G54A U96A | 0.03
G70U A92G | 0.08
C71U U96A | 0.04
U13A A140U | 0.89
A43G G54A | 0.41
U62A A65C | 0.07
U26C C71U | 0.9
U85C A138U | 0.13
U15A A121U | 1.35

Variant | self-cleavage
U91C A94G | 0.15
U39C A69G | 0.39
G89A G137A | 0.05
U87A C110A | 0.06
C56A | 0.05
C56U | 0.11
U1C G7A | 0.7
C16U U104C | 1.03
U15A A59G | 0.08
C84U U85C | 0
A64U A79G | 0.4
U39A A138G | 1.27
G32A G75C | 0.65
A77C U91A | 0.38
U46G U112G | 0
G74U U102C | 1.42
U143A G144A | 1.4
A43U U119C | 1.17
A78G U100C | 2.09
A64G G97A | 0.07
U12A A107U | 1.61
C133A A140C | 1.3
U47C G54U | 1.48
U5C A107G | 1.13

Variant | self-cleavage
G32A U134C | 1.22
C120A A129G | 1.29
U47C U91A | 0.97
A31U A77U | 0.96
U85C U109C | 0.17
U81A U108C | 2.2
A78U U104A | 1.8
A22U U47C | 1.04
A78U A140U | 1.72
U112A C113U | 1.6
A31G G83A | 0.69
A2G A140C | 0.51
A30G G49U | 0.89
A31C U132C | 2.33
U109C C128A | 1.47
A78G A121C | 1.9
G33U A94G | 0.15
A78G A124G | 0.99
A78G A124C | 1.59
U15C U96C | 0.23
U1G A30G | 0.61
U104C U109G | 1.53
A42U C84U | 0.09
U115C U130C | 2.03

Variant | self-cleavage
U62C C66A | 0.02
A94G A141U | 0.19
A69U U91C | 0.06
G49A A142G | 0.98
U20C A92C | 0.14
A22G G36A | 1.36
G21A G33A | 1.39
C68U A138G | 0.17
A59G A77G | 0.15
U1G C37G | 0.49
G36A A121G | 1.1
C19U A77U | 1.3
G8U A129G | 0.32
U5A U73G | 0.48
G58A A138G | 0.04
U14A U62C | 0.1
A43U G89A | 0.06
U15G A141G | 1
G74A A129U | 1.09
A92C U130A | 0.28
U46C C71G | 0.96
U46C C71U | 1.11
A65G U119A | 0.05
U12A C18G | 1.01

Variant | self-cleavage
U52A U81A | 1.49
C71U U87C | 0.04
G44A U143C | 1.48
U29G A107G | 2.23
U9C | 1.22
G53A U130A | 1.21
U29A U62A | 0
U102C A117U | 1.07
A24G U96G | 0
G10U C61U | 0.05
G54U | 0.67
C16A | 0.96
G135A A136G | 1.61
G89A A92U | 0.07
A6G | 0.91
U134C A142G | 1.42
A77G C133U | 1.99
U20A U108G | 0.53
G32U G83U | 0.6
G36A A64G | 0.13
A65C G80A | 0.02
A69C G88A | 0.01
U47C U143A | 1.63
A69G U81A | 0.38

Variant | self-cleavage
U29C G126A | 0.77
A6C U85G | 0.46
U112C A138C | 1.98
A31U A67U | 0.3
U52G A141G | 1.72
G60A U143A | 0.05
U62C A65U | 0.01
A6G U104A | 0.73
C18G | 1.36
A78G A138C | 1.31
G48A U112C | 1.45
C3A U104A | 0.7
U5A A57G | 0.83
U85A A142G | 0.08
A6G U143C | 0.57
A77G A141U | 1.89
A77G A141G | 2.25
G74A C84U | 0.07
A124U U132A | 1.56
G80A A94G | 0.23
G55A U87C | 0.04
U87A A121G | 0.1
A6G U62C | 0.18
G33U A67U | 0.17

Variant | self-cleavage
A67G A124G | 0.26
A31U U100G | 1.23
A2U A138U | 1.01
G41A A65G | 0.03
C18U A77G | 1.91
U13C A64G | 0.35
U85C G122A | 0.14
G86A U108A | 0.02
U112C A117U | 1.39
G89U G125A | 0.05
U13C G126A | 1.22
G25U U119A | 1.69
U20C G70A | 0.14
U29C U85G | 0.28
A30G C84G | 0.17
U15C G21A | 1.11
A50G A64U | 0.39
C37A A142G | 1.24
C71U U143C | 0.64
C71U A121U | 0.93
A6U C133U | 1.04
U39A G106A | 1.35
G40A U96A | 0.03
